Assay results reported in the supplement of paper PMC9233669.
Variants at the floor of the assay were thinned out.

Columns and labels:
[1] = test system: biotinyl-Phe-oxazolone; assay: self-aminoacylation, catalytic enhancement (BFO) (fold over background); higher = more active; k-Seq, kA / k0A0; sequences stand for … in GGGAAUGGAUCCACAUCUACGAAUUC…UUCACUGCAGACUUGACGAAGCUG
How it was run: (§1)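 Each biotinyl-aminoacyl-oxazolone, at 2–1250 μM, was incubated with mutagenized RNA pools (0.43 μM) carrying a 21-nt variable region. The 50 μL reactions contained HEPES/NaCl/KCl/MgCl2/CaCl2 buffer with 5% acetonitrile at pH 6.9–7.0 and ran for 90 minutes at room temperature. After streptavidin capture, RNA was measured by qPCR in triplicate and by Illumina sequencing, and catalytic enhancement was calculated as median kA over the uncatalyzed rate from a pseudo-first-order fit of per-sequence fraction reacted.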

[2] = test system: biotinyl-Ile-oxazolone; assay: self-aminoacylation, catalytic enhancement (BIO) (fold over background); higher = more active; k-Seq, kA / k0A0; sequences stand for … in GGGAAUGGAUCCACAUCUACGAAUUC…UUCACUGCAGACUUGACGAAGCUG
How it was run: as §1

[3] = test system: biotinyl-Met-oxazolone; assay: self-aminoacylation, catalytic enhancement (BMO) (fold over background); higher = more active; k-Seq, kA / k0A0; sequences stand for … in GGGAAUGGAUCCACAUCUACGAAUUC…UUCACUGCAGACUUGACGAAGCUG
How it was run: as §1

[4] = test system: biotinyl-Val-oxazolone; assay: self-aminoacylation, catalytic enhancement (BVO) (fold over background); higher = more active; k-Seq, kA / k0A0; sequences stand for … in GGGAAUGGAUCCACAUCUACGAAUUC…UUCACUGCAGACUUGACGAAGCUG
How it was run: as §1

[5] = test system: biotinyl-Leu-oxazolone; assay: self-aminoacylation, catalytic enhancement (BLO) (fold over background); higher = more active; k-Seq, kA / k0A0; sequences stand for … in GGGAAUGGAUCCACAUCUACGAAUUC…UUCACUGCAGACUUGACGAAGCUG
How it was run: as §1

[6] = test system: biotinyl-Trp-oxazolone; assay: self-aminoacylation, catalytic enhancement (BWO) (fold over background); higher = more active; k-Seq, kA / k0A0; sequences stand for … in GGGAAUGGAUCCACAUCUACGAAUUC…UUCACUGCAGACUUGACGAAGCUG
How it was run: as §1

Sequence	self-aminoacylation [1]	self-aminoacylation [2]	self-aminoacylation [3]	self-aminoacylation [4]	self-aminoacylation [5]	self-aminoacylation [6]
AAAUUUGGUAAUAGUCGCAAG [Fam3.1 aminoacylation ribozyme variant]	2.12	2.2	1.88	1.74	1.86	2.27
AACUUCGCUAAUAGUCGCAAG [Fam3.1 aminoacylation ribozyme variant]	14.5	2.98	3.5	3.03	3.44	3.06
AACUUUGCUAAUAGUCGCAUG [Fam3.1 aminoacylation ribozyme variant]	2.98	2.77	2.35	1.89	2.79	2.85
AACUUUGCUAAUAGUCGCCAG [Fam3.1 aminoacylation ribozyme variant]	10.9	2.68	2.59	2.87	3.5	2.35
AACUUUGCUGAUAGUCGCAAG [Fam3.1 aminoacylation ribozyme variant]	3.74	2.81	2.81	2.24	3.01	3.67
AACUUUGGUAAUAGUCGCAAG [Fam3.1 aminoacylation ribozyme variant]	3.84	2.58	2.22	2.15	3.08	2.24
AAGAUUACUAAUAGUCGCAAG [Fam3.1 aminoacylation ribozyme variant]	2.29	1.6	1.77	1.41	1.44	1.92
AAGAUUGCUAAUAGUCCCAAG [Fam3.1 aminoacylation ribozyme variant]	2.39	1.28	0.597	0.756	0.778	0.756
AAGAUUGCUAAUAGUCGCAAA [Fam3.1 aminoacylation ribozyme variant]	1.39	1.58	1.37	1.3	1.43	2.09
AAGAUUGCUAAUAGUCGCUAG [Fam3.1 aminoacylation ribozyme variant]	0.773	1.23	0.811	1.04	0.963	0.937
AAGCACCUAGGUCAUCGGGUG [Fam2.2 aminoacylation ribozyme variant]	23.6	2.84	3.13	2.91	2.66	4.45
AAGCUUGCAAAUAGUCGCAAG [Fam3.1 aminoacylation ribozyme variant]	7.03	2.14	2.53	2.25	2.07	2.14
AAGCUUGCUAAAAGUCGCAAG [Fam3.1 aminoacylation ribozyme variant]	5.12	2.16	3.31	1.79	3.1	3.43
AAGCUUGCUAAGAGUCGCAAG [Fam3.1 aminoacylation ribozyme variant]	3.44	2.51	2.23	2.44	2.66	3.08
AAGCUUGCUAAUAGGCGCAAG [Fam3.1 aminoacylation ribozyme variant]	1.46	1.38	1.12	1.16	1.66	1.2
AAGGUUGCUAAUAGGCGCAAG [Fam3.1 aminoacylation ribozyme variant]	1.11	1.19	0.729	0.796	1.17	1.17
AAGGUUGCUAAUAGUCGCGAG [Fam3.1 aminoacylation ribozyme variant]	2.49	1.56	1.64	1.5	0.991	1.64
AAGGUUGCUAAUAGUCUCAAG [Fam3.1 aminoacylation ribozyme variant]	2.46	1.13	1.05	0.996	0.944	1.52
AAGGUUGCUAAUAUUCGCAAG [Fam3.1 aminoacylation ribozyme variant]	1.6	1.59	1.22	1.26	2.03	1.22
AAGGUUGCUAAUGGUCGCAAG [Fam3.1 aminoacylation ribozyme variant]	1.68	1.06	0.949	1	0.828	0.994
AAGGUUGGUAAUAGUCGCAAG [Fam3.1 aminoacylation ribozyme variant]	2.09	1.48	1.59	1.38	1.55	2.15
AAGUAUGAUAAUAGUCGCAAG [Fam3.1 aminoacylation ribozyme variant]	1.35	1.22	1.13	1.28	1.1	1.2

Sequence	self-aminoacylation [1]	self-aminoacylation [2]	self-aminoacylation [3]	self-aminoacylation [4]	self-aminoacylation [5]	self-aminoacylation [6]
AAGUAUGCUAAUAAUCGCAAG [Fam3.1 aminoacylation ribozyme variant]	2	1.45	1.28	1.05	1.14	1.39
AAGUAUGCUAAUAGUCGAAAG [Fam3.1 aminoacylation ribozyme variant]	15.7	1.48	1.7	1.21	1.31	4.62
AAGUAUGCUAAUAGUCGCAAU [Fam3.1 aminoacylation ribozyme variant]	1.96	1.9	2.13	1.52	1.64	1.75
AAGUAUGCUAAUAGUCGCAUG [Fam3.1 aminoacylation ribozyme variant]	1.66	1.34	1.45	1.09	1.55	1.84
AAGUAUGCUAAUCGUCGCAAG [Fam3.1 aminoacylation ribozyme variant]	2.35	1.81	1.71	1.56	1.37	1.76
AAGUAUGCUCAUAGUCGCAAG [Fam3.1 aminoacylation ribozyme variant]	4.07	1.83	1.5	1.3	1.3	2.78
AAGUAUGCUGAUAGUCGCAAG [Fam3.1 aminoacylation ribozyme variant]	1.92	1.84	1.94	1.65	1.91	1.96
AAGUCUGCAAAUAGUCGCAAG [Fam3.1 aminoacylation ribozyme variant]	1.15	0.902	0.888	0.671	0.891	1.22
AAGUCUGCGAAUAGUCGCAAG [Fam3.1 aminoacylation ribozyme variant]	8.07	1	1.76	0.979	1.38	1.2
AAGUCUGCUAAUAGACGCAAG [Fam3.1 aminoacylation ribozyme variant]	1.01	0.692	0.669	0.715	0.771	0.653
AAGUCUGCUAAUAGUAGCAAG [Fam3.1 aminoacylation ribozyme variant]	1.42	0.968	1.24	1.08	1.44	1.67
AAGUCUGCUAAUAGUCACAAG [Fam3.1 aminoacylation ribozyme variant]	12.6	1.24	1.95	1.25	1.3	3.73
AAGUCUGCUAAUAGUCGCGAG [Fam3.1 aminoacylation ribozyme variant]	5.39	1.26	1.77	1.33	1.36	3.06
AAGUCUGCUAAUAGUCGCUAG [Fam3.1 aminoacylation ribozyme variant]	3.35	0.989	0.995	0.983	1.29	1.81
AAGUCUGCUCAUAGUCGCAAG [Fam3.1 aminoacylation ribozyme variant]	8.38	1.16	1.29	1.18	1.08	4.23
AAGUCUUCUAAUAGUCGCAAG [Fam3.1 aminoacylation ribozyme variant]	3.19	2.06	1.56	1.52	1.83	2.07
AAGUGUGCCAAUAGUCGCAAG [Fam3.1 aminoacylation ribozyme variant]	2.66	2.38	1.97	1.61	1.78	1.66
AAGUGUGCUAAUAGUCCCAAG [Fam3.1 aminoacylation ribozyme variant]	3.77	1.34	1.17	1.28	1.24	2.02
AAGUGUGCUAAUAGUCGCAAA [Fam3.1 aminoacylation ribozyme variant]	2.76	1.79	2.07	1.41	1.52	1.88
AAGUGUGCUAAUAGUCGCACG [Fam3.1 aminoacylation ribozyme variant]	2.38	1.19	1.6	1.04	1.5	2.16
AAGUGUGCUAAUAGUCGUAAG [Fam3.1 aminoacylation ribozyme variant]	28	1.54	1.69	1.12	0.899	7.72
